Where a chain is given by its changes, count along the chain named.

Experimental findings from patent US20220332804A1 (CSL INNOVATION, published 2022) are described below.

Experiment in all cases: SPR, mAb captured, C2 mutant analyte;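 note: Anti-C2 mAbs captured on goat anti-human IgG Biacore CM5 chips, alanine or serine C2 surface mutants flowed over at 37 °C, double-referenced sensorgrams fitted to a 1:1 binding model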
Background: SPR reads the build-up and loss of mass on a sensor chip optically.

The target of one assay is T1, human C2 K430A (human, UniProt P06681 21-752).
T1 sequence: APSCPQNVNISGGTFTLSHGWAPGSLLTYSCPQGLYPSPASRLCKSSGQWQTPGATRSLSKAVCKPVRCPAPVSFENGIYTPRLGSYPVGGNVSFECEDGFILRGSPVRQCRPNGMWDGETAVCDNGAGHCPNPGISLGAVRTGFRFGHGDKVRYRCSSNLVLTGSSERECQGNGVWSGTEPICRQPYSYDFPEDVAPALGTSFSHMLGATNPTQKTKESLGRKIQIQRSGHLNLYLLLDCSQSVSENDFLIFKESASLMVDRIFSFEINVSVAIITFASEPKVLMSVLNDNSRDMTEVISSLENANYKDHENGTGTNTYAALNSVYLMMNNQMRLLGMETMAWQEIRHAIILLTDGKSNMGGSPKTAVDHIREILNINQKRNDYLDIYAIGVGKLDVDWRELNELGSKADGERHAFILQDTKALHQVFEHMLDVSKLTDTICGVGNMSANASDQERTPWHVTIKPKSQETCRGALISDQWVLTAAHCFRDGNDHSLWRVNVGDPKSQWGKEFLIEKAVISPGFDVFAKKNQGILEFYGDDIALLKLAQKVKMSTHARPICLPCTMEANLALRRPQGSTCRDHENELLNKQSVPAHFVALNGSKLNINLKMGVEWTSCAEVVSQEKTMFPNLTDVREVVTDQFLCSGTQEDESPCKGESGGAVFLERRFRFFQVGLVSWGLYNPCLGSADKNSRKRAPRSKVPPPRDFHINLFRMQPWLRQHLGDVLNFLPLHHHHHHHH

The next assay concerns the target T2, human C2 W420A (human, UniProt P06681 21-752).
T2 sequence: T1 sequence with W400A, A410K

A further assay has as its target T3, human C2 E686A (human, UniProt P06681 21-752).
T3 sequence: T1 sequence with A410K, E666A

The next assay deals with T4, human C2 K457A (human, UniProt P06681 21-752).
T4 sequence: T1 sequence with A410K, K437A

B1: RF16-214 (antibody, V domains shown)
VH: EVQLLESGGGLVQPGGSLRLSCAASGFTFSWYQMMWVRQAPGKGLEWVSRIYPSGGGTAYADSVKGRFTISRDNSKNTLYLQMNSLRAEDTAVYYCARDAGYGDNWGQGTLVTVSS
VL: QSALTQPPSVSVSPGQTASITCSGDKLGEKYASWYQQKAGQSPVMVIYQDRKRPSGIPERFSGSNSGNTATLTISGTQAMDEADYYCQAWDTRAVVFGGGTKLTVLG
Consider B1, for which the Kd (commonly the constant that tells how readily two partners part at equilibrium) with human C2 K430A came to 308 nM; with human C2 W420A, 34.9 nM; with human C2 E686A it was 139 nM; with human C2 K457A, 41.8 nM.
